# Results as given in patent US20140220589.
# T1: H11 peptide FLVMFLSG (SEQ. ID. NO.: 1) (not fully specified)
# T1 chain: FLVMFLSG
# B1: streptococcal pyogenix exotoxin B (SpeB) (protein)
# chain: QPVVKSLLDSKGIHYNQGNPYNLLTPVIEKVKPGEQSFVGQHAATGCVATATAQIMKYHNYPNKGLKDYTYTLSSNNPYFNHPKNLFAAISTRQYNWNNILPTYSGRESNVQKMAISELMADVGISVDMDYGPSSGSAGSSRVQRALKENFGYNQSVHQINRGDFSKQDWEAQIDKELSQNQPVYYQGVGKVGGHAFVIDGADGRNFYHVNWGWGGVSDGFFRLDALNPSALGTGGGAGGFNGYQSAVVGIKP
# Target: T1, H11 peptide FLVMFLSG (SEQ. ID. NO.: 1)
protein,measurement,value
B1,"proteolytic activity in a microplate assay (rate of color development, mOD/min); lower limit of detection",The lower limit of detection was 100 pg of purified SpeB
